How the values were obtained:
[1] = test system: HGF-G1 precursor protein (HGF-NG with Leu488-Arg489 at the C-terminus of the α chain converted into His-Tyr)
[2] = test system: HGF-G3 precursor protein (HGF-NG with Lys-Thr-Lys-Gln-Leu-Arg at 484-489 converted into Pro-Gly-Ala-Ala-His-Tyr)
[3] = test system: HGF-NG precursor protein (5-amino-acid-deleted-type/glycosylation-deficient human HGF with the natural α chain-β chain boundary sequence Arg489-Val490)
[4] = test system: HGF-G2 precursor protein (HGF-NG with Arg489-Val490 converted into Tyr-His)
Sequence of HGF-G2 precursor protein (HGF-NG with Arg489-Val490 converted into Tyr-His) (chain, as listed by the source): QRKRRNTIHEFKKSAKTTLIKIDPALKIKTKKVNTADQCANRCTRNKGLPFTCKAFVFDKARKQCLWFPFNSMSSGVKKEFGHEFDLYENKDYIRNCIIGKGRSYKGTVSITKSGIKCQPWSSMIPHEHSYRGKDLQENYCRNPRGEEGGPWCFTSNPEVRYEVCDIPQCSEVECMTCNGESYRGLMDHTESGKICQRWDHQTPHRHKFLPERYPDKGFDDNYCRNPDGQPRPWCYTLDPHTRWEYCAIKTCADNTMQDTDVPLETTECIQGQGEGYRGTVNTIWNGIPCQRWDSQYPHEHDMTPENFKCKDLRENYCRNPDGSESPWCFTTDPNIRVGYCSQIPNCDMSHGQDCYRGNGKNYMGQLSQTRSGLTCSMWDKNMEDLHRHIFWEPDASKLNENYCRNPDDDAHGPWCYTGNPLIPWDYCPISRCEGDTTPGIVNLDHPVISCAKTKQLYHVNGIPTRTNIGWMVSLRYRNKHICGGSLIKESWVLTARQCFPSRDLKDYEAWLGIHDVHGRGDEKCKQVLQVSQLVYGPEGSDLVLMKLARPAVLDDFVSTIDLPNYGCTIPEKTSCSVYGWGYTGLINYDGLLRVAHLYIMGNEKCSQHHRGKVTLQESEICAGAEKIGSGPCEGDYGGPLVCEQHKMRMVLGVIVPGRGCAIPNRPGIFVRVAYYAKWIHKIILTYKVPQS

Sequence of HGF-NG precursor protein (5-amino-acid-deleted-type/glycosylation-deficient human HGF with the natural α chain-β chain boundary sequence Arg489-Val490) (chain, as listed by the source, stated change not applied): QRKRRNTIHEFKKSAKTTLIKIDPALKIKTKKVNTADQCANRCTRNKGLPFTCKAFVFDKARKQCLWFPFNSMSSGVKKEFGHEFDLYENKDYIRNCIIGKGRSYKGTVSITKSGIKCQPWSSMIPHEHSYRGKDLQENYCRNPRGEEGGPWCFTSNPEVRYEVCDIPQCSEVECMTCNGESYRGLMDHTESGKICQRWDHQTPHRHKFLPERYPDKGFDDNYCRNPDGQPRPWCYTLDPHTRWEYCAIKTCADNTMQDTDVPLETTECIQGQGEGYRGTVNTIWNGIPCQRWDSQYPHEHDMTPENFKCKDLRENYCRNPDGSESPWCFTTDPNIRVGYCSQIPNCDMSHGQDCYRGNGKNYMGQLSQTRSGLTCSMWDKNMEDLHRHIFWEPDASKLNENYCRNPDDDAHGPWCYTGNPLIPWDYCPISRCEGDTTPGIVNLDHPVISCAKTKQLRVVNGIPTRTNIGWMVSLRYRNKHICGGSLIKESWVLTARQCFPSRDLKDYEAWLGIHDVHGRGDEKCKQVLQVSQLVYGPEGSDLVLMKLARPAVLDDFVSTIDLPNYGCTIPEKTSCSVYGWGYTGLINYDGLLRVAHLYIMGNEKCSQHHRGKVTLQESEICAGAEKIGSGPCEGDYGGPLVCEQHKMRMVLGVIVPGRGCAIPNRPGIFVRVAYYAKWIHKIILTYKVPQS
Sequence of HGF-G3 precursor protein (HGF-NG with Lys-Thr-Lys-Gln-Leu-Arg at 484-489 converted into Pro-Gly-Ala-Ala-His-Tyr) (chain, as listed by the source): as the sequence (chain, as listed by the source, stated change not applied) above, with K453P, T454G, K455A, Q456A, L457H, R458Y counted along it
Sequence of HGF-G1 precursor protein (HGF-NG with Leu488-Arg489 at the C-terminus of the α chain converted into His-Tyr) (chain, as listed by the source): as the sequence (chain, as listed by the source, stated change not applied) above, with L457H, R458Y counted along it

Genenase I (made by New England Laboratory)
cleavage of the single-stranded precursor into α and β chain bands (western blot, reducing SDS-PAGE) [1]: after Genenase I treatment, bands were detected at the same positions as those of the α chain and β chain of HGF-NG
cleavage of the single-stranded precursor into α and β chain bands (western blot, reducing SDS-PAGE) [2]: after Genenase I treatment, bands were detected at the same positions as those of the α chain and β chain of HGF-NG
cleavage of the single-stranded precursor (western blot, reducing SDS-PAGE) [3]: HGF-NG precursor protein having a natural α chain-β chain boundary sequence was not cleaved by Genenase I
cleavage of the single-stranded precursor into α and β chain bands (western blot, reducing SDS-PAGE) [4]: after Genenase I treatment, bands were detected at the same positions as those of the α chain and β chain of HGF-NG
